Source: patent publication US20130344055A1, “ANTIMICROBIAL AGENTS” (priority 2010, published 2013)

B1: Cecropin A (A. aegyptii)-LysK: LysK fusion variant with one peptide stretch, Cecropin A (A. aegyptii) (protein)
chain: MGGLKKLGKKLEGAGKRVFNAAEKALPVVAGAKALRKAKTQAEINKRLDAYAKGTVDSPYRVKKATSYDPSFGVMEAGAIDADGYYHAQCQDLITDYVLWLTDNKVRTWGNAKDQIKQSYGTGFKIHENKPSTVPKKGWIAVFTSGSYEQWGHIGIVYDGGNTSTFTILEQNWNGYANKKPTKRVDNYYGLTHFIEIPVKAGTTVKKETAKKSASKTPAPKKKATLKVSKNHINYTMDKRGKKPEGMVIHNDAGRSSGQQYENSLANAGYARYANGIAHYYGSEGYVWEAIDAKNQIAWHTGDGTGANSGNFRFAGIEVCQSMSASDAQFLKNEQAVFQFTAEKFKEWGLTPNRKTVRLHMEFVPTACPHRSMVLHTGFNPVTQGRPSQAIMNKLKDYFIKQIKNYMDKGTSSSTVVKDGKTSSASTPATRPVTGSWKKNQYGTWYKPENATFVNGNQPIVTRIGSPFLNAPVGGNLPAGATIVYDEVCIQAGHIWIGYNAYNGNRVYCPVRTCQGVPPNQIPGVAWGVFK
B2: EL188: Pseudomonas aeruginosa bacteriophage endolysin EL188 (phage EL) (protein)
chain: MNFRTKNGYRDLQALVKELGLYTGQIDGVWGKGTSSSTETLLRGYAEVVGKNTGGIGLPTTSDASGYNVITALQRNLAFLGLYSLTVDGIWGNGTLSGLDKAFEVYKERYRTPTYDIAWSGKVSPAFTAKVKDWCGVHVPNHRAPHWLMACMAFETGQTFSPSIKNAAGSEAYGLIQFMSPAANDLNVPLSVIRSMDQLTQLDLVFKYFEMWMKRGKRYTQLEDFYLTIFHPASVGKKADEVLFLQGSKAYLQNKGFDVDKDGKITLGEISSTLYTTYYKGLLPENRHVISY
modifications: Pseudomonas aeruginosa phage EL
B3: KZ144-PK: KZ144 fusion variant with one peptide stretch, PK (protein)
chain: MKVLRKGDRGDEVCQLQTLLNLCGYDVGKPDGIFGNNTFNQVVKFQKDNCLDSDGIVGKNTWAELFSKYSPPIPYKTIPMPTANKSRAAATPVMNAVENATGVRSQLLLTFASIESAFDYEIKAKTSSATGWFQFLTGTWKTMIENYGMKYGVLTDPTGALRKDPRISALMGAELIKENMNILRPVLKREPTDTDLYLAHFFGPGAARRFLTTGQNELAATHFPKEAQANPSIFYNKDGSPKTIQEVYNLMDGKVAAHRKKRKKRKKRK
B4: Cpl1-Pseudin1: Cpl1 fusion variant with one peptide stretch, Pseudin1 (protein)
chain: MVKKNDLFVDVSSHNGYDITGILEQMGTTNTIIKISESTTYLNPCLSAQVEQSNPIGFYHFARFGGDVAEAEREAQFFLDNVPMQVKYLVLDYEDDPSGDAQANTNACLRFMQMIADAGYKPIYYSYKPFTHDNVDYQQILAQFPNSLWIAGYGLNDGTANFEYFPSMDGIRWWQYSSNPFDKNIVLLDDEEDDKPKTAGTWKQDSKGWWFRRNNGSFPYNKWEKIGGVWYYFDSKGYCLTSEWLKDNEKWYYLKDNGAMATGWVLVGSEWYYMDDSGAMVTGWVKYKNNWYYMTNERGNMVSNEFIKSGKGWYFMNTNGELADNPSFTKEPDGLITVAGLNTLKKVFQGLHEAIKLINNHVQ
B5: Cpl1: endolysin Cpl-1 (protein)
chain: MVKKNDLFVDVSSHNGYDITGILEQMGTTNTIIKISESTTYLNPCLSAQVEQSNPIGFYHFARFGGDVAEAEREAQFFLDNVPMQVKYLVLDYEDDPSGDAQANTNACLRFMQMIADAGYKPIYYSYKPFTHDNVDYQQILAQFPNSLWIAGYGLNDGTANFEYFPSMDGIRWWQYSSNPFDKNIVLLDDEEDDKPKTAGTWKQDSKGWWFRRNNGSFPYNKWEKIGGVWYYFDSKGYCLTSEWLKDNEKWYYLKDNGAMATGWVLVGSEWYYMDDSGAMVTGWVKYKNNWYYMTNERGNMVSNEFIKSGKGWYFMNTNGELADNPSFTKEPDGLITVA
modifications: Streptococcus pneumoniae Phage Cpl-1
B6: Cpl1-Pseudin1-Indolicidin: Cpl1 with Pseudin1 C-terminal of the enzyme, followed by Indolicidin (protein)
chain: MVKKNDLFVDVSSHNGYDITGILEQMGTTNTIIKISESTTYLNPCLSAQVEQSNPIGFYHFARFGGDVAEAEREAQFFLDNVPMQVKYLVLDYEDDPSGDAQANTNACLRFMQMIADAGYKPIYYSYKPFTHDNVDYQQILAQFPNSLWIAGYGLNDGTANFEYFPSMDGIRWWQYSSNPFDKNIVLLDDEEDDKPKTAGTWKQDSKGWWFRRNNGSFPYNKWEKIGGVWYYFDSKGYCLTSEWLKDNEKWYYLKDNGAMATGWVLVGSEWYYMDDSGAMVTGWVKYKNNWYYMTNERGNMVSNEFIKSGKGWYFMNTNGELADNPSFTKEPDGLITVAGLNTLKKVFQGLHEAIKLINNHVQILPWKWPWWPWRR
B7: P1y511: endolysin Ply511 (protein)
chain: MVKYTVENKIIAGLPKGKLKGANFVIAHETANSKSTIDNEVSYMTRNWKNAFVTHFVGGGGRVVQVANVNYVSWGAGQYANSYSYAQVELCRTSNATTFKKDYEVYCQLLVDLAKKAGIPITLDSGSKTSDKGIKSHKWVADKLGGTTHQDPYAYLSSWGISKAQFASDLAKVSGGGNTGTAPAKPSTPAPKPSTPSTNLDKLGLVDYMNAKKMDSSYSNRDKLAKQYGIANYSGTASQNTTLLSKIKGGAPKPSTPAPKPSTSTAKKIYFPPNKGNWSVYPTNKAPVKANAIGAINPTKFGGLTYTIQKDRGNGVYEIQTDQFGRVQVYGAPSTGAVIKK
modifications: Listeria monocytogenes Phage A511
notes: endolysin Ply511
B8: KZ144: Pseudomonas aeruginosa bacteriophage endolysin KZ144 (phage phiKZ) (protein)
chain: KVLRKGDRGDEVCQLQTLLNLCGYDVGKPDGIFGNNTFNQVVKFQKDNCLDSDGIVGKNTWAELFSKYSPPIPYKTIPMPTANKSRAAATPVMNAVENATGVRSQLLLTFASIESAFDYEIKAKTSSATGWFQFLTGTWKTMIENYGMKYGVLTDPTGALRKDPRISALMGAELIKENMNILRPVLKREPTDTDLYLAHFFGPGAARRFLTTGQNELAATHFPKEAQANPSIFYNKDGSPKTIQEVYNLMDGKVAAHRK
modifications: Pseudomonas aeruginosa phage KZ
B9: EL188-PK: EL188 fusion variant with one peptide stretch, PK (protein)
chain: MNFRTKNGYRDLQALVKELGLYTGQIDGVWGKGTSSSTETLLRGYAEVVGKNTGGIGLPTTSDASGYNVITALQRNLAFLGLYSLTVDGIWGNGTLSGDKAFEVYKERYRTPTYDIAWSGKVSPAFTAKVKDWCGVHVPNHRAPHWLMACMAFETGQTFSPSIKNAAGSEAYGLIQFMSPAANDLNVPLSVIRSMDQLTQLDLVFKYFEMWMKRGKRYTQLEDFYLTIFHPASVGKKADEVLFLQGSKAYLQNKGFDVDKDGKITLGEISSTLYTTYYKGLLPENRHVISYKRKKRKKRK
B10: Cpl1-Indolicidin: Cpl1 fusion variant with one peptide stretch, Indolicidin (protein)
chain: MVKKNDLFVDVSSHNGYDITGILEQMGTTNTIIKISESTTYLNPCLSAQVEQSNPIGFYHFARFGGDVAEAEREAQFFLDNVPMQVKYLVLDYEDDPSGDAQANTNACLRFMQMIADAGYKPIYYSYKPFTHDNVDYQQILAQFPNSLWIAGYGLNDGTANFEYFPSMDGIRWWQYSSNPFDKNIVLLDDEEDDKPKTAGTWKQDSKGWWFRRNNGSFPYNKWEKIGGVWYYFDSKGYCLTSEWLKDNEKWYYLKDNGAMATGWVLVGSEWYYMDDSGAMVTGWVKYKNNWYYMTNERGNMVSNEFIKSGKGWYFMNTNGELADNPSFTKEPDGLITVAILPWKWPWWPWRR
B11: PK2-Cecropin A (A. aegyptii)-LysK: PK2, then Cecropin A (A. aegyptii), N-terminally fused to LysK (protein)
chain: MKRKKRKKRKKRKKRKKRKGGLKKLGKKLEGAGKRVFNAAEKALPVVAGAKALRKAKTQAEINKRLDAYAKGTVDSPYRVKKATSYDPSFGVMEAGAIDADGYYHAQCQDLITDYVLWLTDNKVRTWGNAKDQIKQSYGTGFKIHENKPSTVPKKGWIAVFTSGSYEQWGHIGIVYDGGNTSTFTILEQNWNGYANKKPTKRVDNYYGLTHFIEIPVKAGTTVKKETAKKSASKTPAPKKKATLKVSKNHINYTMDKRGKKPEGMVIHNDAGRSSGQQYENSLANAGYARYANGIAHYYGSEGYVWEAIDAKNQIAWHTGDGTGANSGNFRFAGIEVCQSMSASDAQFLKNEQAVFQFTAEKFKEWGLTPNRKTVRLHMEFVPTACPHRSMVLHTGFNPVTQGRPSQAIMNKLKDYFIKQIKNYMDKGTSSSTVVKDGKTSSASTPATRPVTGSWKKNQYGTWYKPENATFVNGNQPIVTRIGSPFLNAPVGGNLPAGATIVYDEVCIQAGHIWIGYNAYNGNRVYCPVRTCQGVPPNQIPGVAWGVFK

Assays:
Assay type in all cases: cell-based
[1] = test system: Staphylococcus bacteria; assay: In vitro antibacterial activity of Lysostaphin and LysK fusion variants; conditions: LysK variants; with EDTA 0.5 mM; 10^6 cells/ml; 30 minutes at RT
[2] = test system: Pseudomonas bacteria; assay: In vitro antibacterial activity of KZ144 and EL188 fusion variants; conditions: with EDTA 0.5 mM; 10^6 cells/ml; 30 minutes at RT
Protocol: Exponential growing Gram-negative bacterial cells (OD600 nm=0.6) were 100-fold diluted to a final density of about 10^6 cells/ml in 5 mM HEPES pH 7.4 and incubated for 30 minutes at room temperature without shaking with the different modified OBPgpLYS variants (in Elution Buffer in an end concentration of 1500 nM). After incubation cell suspensions and as a control untreated bacterial cells without any added modified OBPgpLYS variant were diluted three times (respectively 10^5-10^4-10^3 cells/ml) in 1× concentrated PBS buffer and 100 μl of each dilution was plated out on LB-medium. […] All samples were replicated in threefold. Averages +/− standard deviations are represented.
The purification of the fusion proteins and the antimicrobial activity assay was performed as described in Example 1.

[3] = test system: Streptococcus bacteria; assay: In vitro antibacterial activity of Cpl1 fusion variants; conditions: with EDTA 0.5 mM; 10^6 cells/ml; 30 minutes at RT
[4] = test system: Listeria bacteria; assay: In vitro antibacterial activity of Ply511 fusion variants; conditions: with EDTA 0.5 mM; 10^6 cells/ml; 30 minutes at RT

Molecule | Average log reduction, Pseudomonas [2] | Average log reduction, Streptococcus [3] | other results
B1 |  |  | Average log reduction, Staphylococcus [1]: ++ (++: 2-3 log)
B2 | +/− (+/−: <1 log) |  | 
B3 | + (+: 1 log) |  | 
B4 |  | ++ (++: 2-3 log) | 
B5 |  | + (+: 1 log) | 
B6 |  | +++ (+++: 4 or more logs) | 
B7 |  |  | Average log reduction, Listeria [4]: + (+: 1 log)
B8 | +/− (+/−: <1 log) |  | 
B9 | + (+: 1 log) |  | 
B10 |  | ++ (++: 2-3 log) | 
B11 |  |  | Average log reduction, Staphylococcus [1]: +++ (+++: 4 or more logs)
